According to patent US20120316071A1 (published 2012):

Experiments:
[1] = biological target: T1, Recombinant Human DLL4 (R&D Systems Cat#1506-D4/CF) (human, UniProt Q9NR61 27-524); test: ELISA, Fab on plate-coated DLL4, absorbance at 450 nm
T1 construct: also called rHuman DLL4; delta-like protein 4

[2] = biological target: T1, Recombinant Human DLL4 (R&D Systems …); test: ECL (MSD) multispot binding assay, Fab on immobilized recombinant human DLL4
[3] = biological target: T2, Recombinant Human DLL4 (delta-like protein 4) (human, UniProt Q9NR61 27-524); test: ELISA, DLL4-coated plate, Fab in solution
T2 construct: Bought recombinant human DLL4 (R&D Systems Cat#1506-D4/CF); also called rHuman DLL4; Delta-like 4

[4] = biological target: T2, Recombinant Human DLL4 (delta-like …); test: ECL (MSD) binding assay, DLL4 on plate, Fab in solution
[5] = biological target: T3, Recombinant Human DLL4 (delta-like protein 4) (human, UniProt Q9NR61 27-524); test: ELISA, Fab on plate-coated DLL4
T3 construct: Bought recombinant human DLL4 (R&D Systems Cat#1506-D4/CF); also called rHuman DLL4; Delta-like 4

[6] = biological target: T3, Recombinant Human DLL4 (delta-like …); test: ECL (MSD) binding assay, Fab on immobilized DLL4

B1: Fab VH5-51_IGHD5-18*01>3_IGHJ4*01 G100K/G104T I51A & V3-4_IGLJ1*01 (Fab, V domains shown)
VH: EVQLVQSGAEVKKPGESLKISCKGSGYSFTSYWIGWVRQMPGKGLEWMGIAYPGDSDTRYSPSFQGQVTISADKSISTAYLQWSSLKASDTAMYYCARRKYSYTYDYFDYWGQGTLVTVSS
VL: QTVVTQEPSFSVSPGGTVTLTCGLSSGSVSTSYYPSWYQQTPGQAPRTLIYSTNTRSSGVPDRFSGSILGNKAALTITGAQADDESDYYCVLYMGSGISYVFGTGTKVTVL
notes: Tested as Fab; CH1 with His6/Flag tags (plasmid A) and lambda CL (plasmid E) come from the expression vectors; also called KT I51A
ELISA (Signal-Noise) [1]: 0.01
ECL Signal/Blank [2]: 30.6

B2: Fab VH5-51_IGHD5-18*01>3_IGHJ4*01 G100K/G104T I50A & V3-4_IGLJ1*01 (Fab, V domains shown)
VH: EVQLVQSGAEVKKPGESLKISCKGSGYSFTSYWIGWVRQMPGKGLEWMGAIYPGDSDTRYSPSFQGQVTISADKSISTAYLQWSSLKASDTAMYYCARRKYSYTYDYFDYWGQGTLVTVSS
VL: QTVVTQEPSFSVSPGGTVTLTCGLSSGSVSTSYYPSWYQQTPGQAPRTLIYSTNTRSSGVPDRFSGSILGNKAALTITGAQADDESDYYCVLYMGSGISYVFGTGTKVTVL
notes: Tested as Fab; CH1 with His6/Flag tags (plasmid A) and lambda CL (plasmid E) come from the expression vectors; also called KT I50A
ELISA (Signal-Noise) [1]: 0.02
ECL Signal/Blank [2]: 40.9

B3: Fab VH5-51_IGHD5-18*01>3_IGHJ4*01 G100K/G104T P53A & V3-4_IGLJ1*01 (Fab, V domains shown)
VH: EVQLVQSGAEVKKPGESLKISCKGSGYSFTSYWIGWVRQMPGKGLEWMGIIYAGDSDTRYSPSFQGQVTISADKSISTAYLQWSSLKASDTAMYYCARRKYSYTYDYFDYWGQGTLVTVSS
VL: QTVVTQEPSFSVSPGGTVTLTCGLSSGSVSTSYYPSWYQQTPGQAPRTLIYSTNTRSSGVPDRFSGSILGNKAALTITGAQADDESDYYCVLYMGSGISYVFGTGTKVTVL
notes: Tested as Fab; CH1 with His6/Flag tags (plasmid A) and lambda CL (plasmid E) come from the expression vectors; also called KT P53A
ELISA (Signal-Noise) [1]: 0
ECL Signal/Blank [2]: 57.7

B4: Fab VH5-51_IGHD5-18*01>3_IGHJ4*01 G100K/G104T S28K & V3-4_IGLJ1*01 (Fab, V domains shown)
VH: EVQLVQSGAEVKKPGESLKISCKGSGYKFTSYWIGWVRQMPGKGLEWMGIIYPGDSDTRYSPSFQGQVTISADKSISTAYLQWSSLKASDTAMYYCARRKYSYTYDYFDYWGQGTLVTVSS
VL: QTVVTQEPSFSVSPGGTVTLTCGLSSGSVSTSYYPSWYQQTPGQAPRTLIYSTNTRSSGVPDRFSGSILGNKAALTITGAQADDESDYYCVLYMGSGISYVFGTGTKVTVL
notes: Fab made in E. coli; also called KT S28K
ELISA (Signal-Noise) [3]: 0.28
ECL signal [4]: 32300

B5: Fab VH5-51_IGHD5-18*01>3_IGHJ4*01 G100K/G104T (KT) & V3-4_IGLJ1*01 R56I (Fab, V domains shown)
VH: EVQLVQSGAEVKKPGESLKISCKGSGYSFTSYWIGWVRQMPGKGLEWMGIIYPGDSDTRYSPSFQGQVTISADKSISTAYLQWSSLKASDTAMYYCARRKYSYTYDYFDYWGQGTLVTVSS
VL: QTVVTQEPSFSVSPGGTVTLTCGLSSGSVSTSYYPSWYQQTPGQAPRTLIYSTNTISSGVPDRFSGSILGNKAALTITGAQADDESDYYCVLYMGSGISYVFGTGTKVTVL
notes: Tested as a Fab (VH-CH1 with His and Flag tags, lambda VL-CL); also called H:KT & L:R56I
ELISA signal [5]: 0.13
ECL signal [6]: 94300

B6: Fab VH5-51_IGHD5-18*01>3_IGHJ4*01 G100K/G104T G24R & V3-4_IGLJ1*01 (Fab, V domains shown)
VH: EVQLVQSGAEVKKPGESLKISCKRSGYSFTSYWIGWVRQMPGKGLEWMGIIYPGDSDTRYSPSFQGQVTISADKSISTAYLQWSSLKASDTAMYYCARRKYSYTYDYFDYWGQGTLVTVSS
VL: QTVVTQEPSFSVSPGGTVTLTCGLSSGSVSTSYYPSWYQQTPGQAPRTLIYSTNTRSSGVPDRFSGSILGNKAALTITGAQADDESDYYCVLYMGSGISYVFGTGTKVTVL
notes: Fab made in E. coli; also called KT G24R
ELISA (Signal-Noise) [3]: 0.06
ECL signal [4]: 4200

B7: Fab VH5-51_IGHD5-18*01>3_IGHJ4*01 G100K/G104T (KT) & V3-4_IGLJ1*01 S52R (Fab, V domains shown)
VH: EVQLVQSGAEVKKPGESLKISCKGSGYSFTSYWIGWVRQMPGKGLEWMGIIYPGDSDTRYSPSFQGQVTISADKSISTAYLQWSSLKASDTAMYYCARRKYSYTYDYFDYWGQGTLVTVSS
VL: QTVVTQEPSFSVSPGGTVTLTCGLSSGSVSTSYYPSWYQQTPGQAPRTLIYRTNTRSSGVPDRFSGSILGNKAALTITGAQADDESDYYCVLYMGSGISYVFGTGTKVTVL
notes: Tested as a Fab (VH-CH1 with His and Flag tags, lambda VL-CL); also called H:KT & L:S52R
ELISA signal [5]: 0.15
ECL signal [6]: 85900
